Experimental data published in patent publication US6288042, “Anti-viral guanosine-rich tetrad forming oligonucleotides” (Aronex Pharmaceuticals, Inc.).

Key:
[1] = target: HIV-1 nucleocapsid protein (Human immunodeficiency virus 1, UniProt P04591 P04591:378-432); assay: binds efficiently, data not shown; conditions: G4
[2] = target: T1, SIV integrase (Simian immunodeficiency virus, UniProt P05896 P05896:1156-1448); assay: inhibition; 3'-processing; conditions: G4
T1 sequence: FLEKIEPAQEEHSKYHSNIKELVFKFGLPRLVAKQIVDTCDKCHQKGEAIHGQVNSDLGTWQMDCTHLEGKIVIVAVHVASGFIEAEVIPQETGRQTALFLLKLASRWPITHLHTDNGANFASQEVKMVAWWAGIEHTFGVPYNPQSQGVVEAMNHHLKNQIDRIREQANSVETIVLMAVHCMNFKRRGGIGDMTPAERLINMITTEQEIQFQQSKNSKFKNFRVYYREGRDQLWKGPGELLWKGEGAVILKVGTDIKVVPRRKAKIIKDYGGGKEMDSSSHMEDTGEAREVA

[3] = target: FIV integrase (Feline immunodeficiency virus, UniProt P16088 P16088:844-1124); assay: inhibition; 3'-processing; conditions: G4
[4] = target: T2, HIV-1 integrase wild-type (IN1-288) (Human immunodeficiency virus 1, UniProt P04585 P04585:1148-1435); assay: inhibition; 3'-processing column as printed; strand transfer column 0.090; conditions: G4
[5] = target: T2, HIV-1 integrase wild-type (IN1-288); assay: inhibition; 3'-processing column as printed; strand transfer column 0.110; conditions: G4
[6] = target: T2, HIV-1 integrase wild-type (IN1-288); assay: inhibition; 3'-processing; other column (strand transfer) 0.870; Table B-7 gives >0.50; only modest inhibition of U5 DNA binding at 500 nM (FIG. 25); conditions: G4
[7] = target: T2, HIV-1 integrase wild-type (IN1-288); assay: inhibition; 3'-processing column as printed; strand transfer column 0.485; conditions: G4
[8] = target: T2, HIV-1 integrase wild-type (IN1-288); assay: inhibition; 3'-processing column as printed; strand transfer column 0.159; conditions: G4
[9] = target: FMLV reverse transcriptase (Friend murine leukemia virus, UniProt P26810 P26810:661-1331); assay: inhibition; reverse transcriptase activity in culture medium; conditions: protein: virion; tags: culture medium of chronically infected NIH3T3 cells
[10] = target: T2, HIV-1 integrase wild-type (IN1-288); assay: inhibition; 3'-processing column as printed; strand transfer column 0.129; conditions: G4
[11] = target: T2, HIV-1 integrase wild-type (IN1-288); assay: inhibition; 3'-processing column as printed; strand transfer column 0.059; conditions: G4
[12] = target: HIV-1 gp120 (Human immunodeficiency virus 1, UniProt P04578 P04578:33-511); assay: competition; PT oligonucleotide inhibits V3 loop Mab binding to immobilized gp120; conditions: tags: immobilized

Binder: GTGGTGGGTGGGTGGGT (structured_DNA, PS at first and last linkage (pPT)) [T30177 (AR177)]
- binding result [1]: binds
- IC50 [2]: 420 nM
- IC50 [3]: 175 nM

Binder: GTGGTGGGTGGGTGGGT (structured_DNA, 5-bromo dU at 13; PS at first and last linkage [n positions 13 = modified dU]) [T30570]
- IC50 [4]: 70 nM

Binder: GTGGTGGGTGGGTGGGT (structured_DNA, 3'-cholesterol via triglycyl linker) [T30075]
- IC50 [5]: 95 nM

Binder: GGTTGGTGTGGTTGG (structured_DNA, PS at first and last linkage (Table B-7; Table C-1 says PT)) [T30659 thrombin binding aptamer pPT]
- IC50 [6]: 750 nM

Binder: GTGGTGGGTGTGGTTGGT (structured_DNA, PS at first and last linkage) [T30675]
- IC50 [7]: 500 nM

Binder: GTGGTTGGTGGGTGGGT (structured_DNA, PS at first and last linkage) [T30679]
- IC50 [8]: 156 nM

Binder: GTTGGGGGTTGTTGGTGGGGTGGTGG (ssDNA, PS all linkages) [I100-12]
- IC50 [9]: < 500 nM

Binder: GTGGGTGGTGGGTGGGT (structured_DNA, C-5 propynyl dU at capital T; PS at first and last linkage) [T30722]
- IC50 [10]: 134 nM

Binder: GGGGTGGTGGGTGGGT (structured_DNA, C-5 propynyl dU at capital T; PS at first and last linkage) [T30720]
- IC50 [11]: 62 nM

Binder: GGGTGGGTGGGTGGGTGG (ssDNA, PS all linkages) [1174]
- binding result [12]: binds

Binder: GTGGTGGGTGGGTGGGTGGTGGGTGGTGGTTGTGGGTGGGTGGTG (ssDNA, PS all linkages) [I100-21]
- binding result [12]: binds
